Test results: US20150299314A1 (TORAY INDUSTRIES, published 2015)

Biological target: T1, CAPRIN-1 protein expressed on the cell surface of human cancer cells (human, UniProt Q14444 2-709)
T1 sequence (looked up): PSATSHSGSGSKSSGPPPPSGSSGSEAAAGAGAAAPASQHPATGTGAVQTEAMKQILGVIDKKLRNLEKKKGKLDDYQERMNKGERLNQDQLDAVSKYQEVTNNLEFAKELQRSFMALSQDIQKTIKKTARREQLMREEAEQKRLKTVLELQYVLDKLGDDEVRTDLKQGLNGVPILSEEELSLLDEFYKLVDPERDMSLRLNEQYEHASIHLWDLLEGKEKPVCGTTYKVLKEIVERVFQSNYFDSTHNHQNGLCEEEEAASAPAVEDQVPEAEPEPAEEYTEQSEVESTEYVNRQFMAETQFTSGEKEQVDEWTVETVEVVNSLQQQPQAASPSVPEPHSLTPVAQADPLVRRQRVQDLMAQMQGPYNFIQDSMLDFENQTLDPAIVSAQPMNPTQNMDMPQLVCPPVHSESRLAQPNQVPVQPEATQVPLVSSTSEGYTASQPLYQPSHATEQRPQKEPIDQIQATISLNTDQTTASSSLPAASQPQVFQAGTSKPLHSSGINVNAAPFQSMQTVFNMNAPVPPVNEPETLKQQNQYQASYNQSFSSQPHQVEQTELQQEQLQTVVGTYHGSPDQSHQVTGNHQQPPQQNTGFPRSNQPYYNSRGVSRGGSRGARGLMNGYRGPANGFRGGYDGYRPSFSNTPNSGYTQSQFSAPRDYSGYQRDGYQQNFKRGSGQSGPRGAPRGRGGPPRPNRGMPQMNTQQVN
Assay: cell-based or functional assay

Binder	cytotoxicity (ADCC, 51Cr release) on TGBC14TKB, human NK cells [%]	ADCC activity (cytotoxicity, 51Cr release) on TGBC14TKB, antibody 5 ug/mL, human NK cells [%]	ADCC activity on TGBC14TKB, method as in Example 12 [%]
human-chicken chimeric antibody #2 (antibody, human IgG1, kappa, V domains shown) VH: AVTLDESGGGLQTPGGGLSLVCKASGFTFSSFDMGWVRQAPGKGLEFVAQINDAGSRTWYATAVKGRATISRDNGQTTVRLQLNNLRAEDTGTYYCTRGSGYVGAGAIDAWGHGTEVIVSA VL: AALTQPSSVSANPGETVKITCSGGSGYYGWYQQQKSPGSAPVTVIYQNDKRPSDIPSRFSGSGSGSTNTLTITGVQAEDEAVYFCGRYDSTDSGIFGAGTTLTVLT	≥ 15		
human-mouse chimeric anti-CAPRIN-1 antibody #30 (antibody) heavy: not shown light: DVQITQSPSYLAASPGETITINCRASKSISKYLAWYQEKPGKTNKLLIYSGSTLQSGIPSRFSGSGSGTDFTLTISSLEPEDFAMYYCQQHNEYPYTFGGGTKLEIKRTVAAPSVFIFPPSDEQLKSGTASVVCLLNNFYPREAKVQWKVDNALQSGNSQESVTEQDSKDSTYSLSSTLTLSKADYEKHKVYACEVTHQGLSSPVTKSFNRGEC		≥ 20	
human-mouse chimeric anti-CAPRIN-1 antibody #31 (antibody, human IgG1, kappa) heavy: not shown light: DVQITQSPSYLAASPGETITINCRASKSISKYLAWYQEKPGKTNKLLIYSGSTLQSGIPSRFSGSGSGTDFTLTISSLEPEDFAMYYCQQHNEYPWTFGGGTKLEIKRTVAAPSVFIFPPSDEQLKSGTASVVCLLNNFYPREAKVQWKVDNALQSGNSQESVTEQDSKDSTYSLSSTLTLSKADYEKHKVYACEVTHQGLSSPVTKSFNRGEC		≥ 20	
human-mouse chimeric anti-CAPRIN-1 antibody #34 (antibody, human IgG1, kappa, V domains shown) VH: GAELVRPGTSVKVSCKASVYAFTNYLIEWVKQRPGQGLEWIGVINPKSGGTKYNEKFRGKATLTADKSSSTAYMQLSSLTSGDSAVYFCAITGTDYWGQGTTLTVSS VL: QGTRCDIQMTQTTSSLSASLGDRVTISCSASQGINNYLNWYQQKPDGTVKLLIYYTSSLRSGVPSRFSGSGSGTDYSLTISNLEPEDVATYYCQQYSKLPRTFGGGTKLEIKR		≥ 20	
human-mouse chimeric anti-CAPRIN-1 antibody #36 (antibody, human IgG1, kappa) heavy: not shown light: QDELSNPVTSGESVSISCRSSKSLLYKDGKTYLNWFLQRPGQSPQLLIYLMSTRASGVSDRFSGSGSGTDFTLEISRVKAEDVGVYYCQQLVEDPLTFGAGTKLELKRTVAAPSVFIFPPSDEQLKSGTASVVCLLNNFYPREAKVQWKVDNALQSGNSQESVTEQDSKDSTYSLSSTLTLSKADYEKHKVYACEVTHQGLSSPVTKSFNRGEC		≥ 20	
human-mouse chimeric anti-CAPRIN-1 antibody #23 (antibody, human IgG1, kappa, V domains shown) VH: GGGLVKPGGSLKLSCAASGFTFSSYGMSWVRQTPEKRLEWVATISSGGSYTYYPDSVKGRFTISRDNAKNTLYLQMSSLRSEDTAMYYCASLASYYFDYWGQGTTLTVSS VL: GARCDVQMIQSPSSLSASLGDIVTMTCQASQGTSINLNWFQQKPGKAPKLLIYGASSLEDGVPSRFSGSCFGTDFTLTISSLEDEDMATYFCLQHSYLPPLTFGAGTKLELKR			≥ 20
human-mouse chimeric anti-CAPRIN-1 antibody #24 (antibody, human IgG1, kappa, V domains shown) VH: GGGLVKPGGSLKLSCAASGFTFSSYGMSWVRQTPEKRLEWVATISSGGSYTYYPDSVKGRFTISRDNAKNTLYLQMSSLRSEDTAMYYCASLASYYFDYWGQGTTLTVSS VL: not shown			≥ 20
human-mouse chimeric anti-CAPRIN-1 antibody #25 (antibody, human IgG1, kappa, V domains shown) VH: GPGLVQPSQSLSITCTVSGFSLTTYDLHWVRQSPGKGLEWLGVIWSGGSTDYNAAFISRLSISKDNSKSQVFFKMNSLQANDTAIYYCARNYGYSAWFAYWGQGTLVTVSA VL: DVLMTQTPLSLPVSLGDQASISCRSSQSIVHSNGNTYLEWYLQKPGQSPKLLIYKVSNRFSGVPDRFSGSGSGTDFTLKISRVEAEDLGVYYCFQGSHVPLTFGAGTKLELKR			≥ 20
human-mouse chimeric anti-CAPRIN-1 antibody #26 (antibody, human IgG1, kappa) heavy: not shown light: PASSSDVLMTQTPLSLPVRLGDQSSISCRSSQSIVHSNGNTYLEWYLQKPGQSPKLLIYKVSNRFSGVPDRFSGSGSGTDFTLKISRVEPEDLGVYYCFQGSHVPYTSEGDQAEIKLATVAAPSVFIFPPSDEQLKSGTASVVCLLNNFYPREAKVQWKVDNALQSGNSQESVTEQDSKDSTYSLSSTLTLSKADYEKHKVYACEVTHQGLSSPVTKSFNRGEC			≥ 20
